Assay results reported in US20160031996A1 (CSL, published 2016).
Where a chain is given by its changes, count along the chain named.

Columns and labels:
[1] = target: T1, wild-type human GM-CSFRα (human, UniProt P15509 23-400); assay: Western blot, whole cell extracts
T1 construct: whole, on cells; negative control, on 293F cells; also called GM-CSFRa
T1 sequence (looked up): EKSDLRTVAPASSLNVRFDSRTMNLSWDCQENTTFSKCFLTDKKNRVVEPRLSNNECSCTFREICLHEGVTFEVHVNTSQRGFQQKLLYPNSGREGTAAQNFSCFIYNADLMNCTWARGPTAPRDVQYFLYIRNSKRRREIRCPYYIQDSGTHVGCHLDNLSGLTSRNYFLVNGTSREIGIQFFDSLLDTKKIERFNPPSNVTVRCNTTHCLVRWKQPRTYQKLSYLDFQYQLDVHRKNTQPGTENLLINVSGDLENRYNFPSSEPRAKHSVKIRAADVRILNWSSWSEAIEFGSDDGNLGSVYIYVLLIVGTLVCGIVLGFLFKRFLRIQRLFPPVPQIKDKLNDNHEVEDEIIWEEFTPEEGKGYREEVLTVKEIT

[2] = target: T2, human IL-3Rα V53A, full length (human, UniProt P26951 19-378); assay: Western blot, whole cell extracts of 293F cells
T2 construct: expressed in 293F cells; Western blot of whole cell extracts; also called V53, cell surface alanine
T2 sequence: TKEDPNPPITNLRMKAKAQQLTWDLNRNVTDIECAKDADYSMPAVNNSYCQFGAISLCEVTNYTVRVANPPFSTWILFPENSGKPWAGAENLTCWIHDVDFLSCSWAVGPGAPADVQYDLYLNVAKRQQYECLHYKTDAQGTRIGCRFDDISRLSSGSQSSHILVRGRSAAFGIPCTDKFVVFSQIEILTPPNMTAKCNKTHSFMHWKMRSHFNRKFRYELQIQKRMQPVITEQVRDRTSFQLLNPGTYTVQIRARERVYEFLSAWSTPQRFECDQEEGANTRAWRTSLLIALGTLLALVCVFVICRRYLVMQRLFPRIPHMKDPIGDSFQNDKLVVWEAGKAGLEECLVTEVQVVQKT

[3] = target: T3, human IL-3Rα P61A, full length (human, UniProt P26951 19-378); assay: Western blot, whole cell extracts of 293F cells
T3 construct: expressed in 293F cells; Western blot of whole cell extracts; also called P61, cell surface alanine
T3 sequence: T2 sequence with A35V, P43A

[4] = target: T4, human IL-3Rα Y58A, full length (human, UniProt P26951 19-378); assay: Western blot, whole cell extracts of 293F cells
T4 construct: expressed in 293F cells; Western blot of whole cell extracts; also called Y58, cell surface alanine
T4 sequence: T2 sequence with A35V, Y40A

[5] = target: T5, human IL-3Rα R84A, full length (human, UniProt P26951 19-378); assay: Western blot, whole cell extracts of 293F cells
T5 construct: expressed in 293F cells; Western blot of whole cell extracts; also called R84, cell surface alanine
T5 sequence: T2 sequence with A35V, R66A

[6] = target: T6, human IL-3Rα W93A, full length (human, UniProt P26951 19-378); assay: Western blot, whole cell extracts of 293F cells
T6 construct: expressed in 293F cells; Western blot of whole cell extracts; also called W93, cell surface alanine
T6 sequence: T2 sequence with A35V, W75A

binding result [1]: no binding
binding result [2]: no binding
binding result [3]: no binding
binding result [4]: no binding
binding result [5]: no binding
binding result [6]: no binding
B1: monoclonal antibody 7G3 (antibody, V domains shown)
VH: EVQLQQSGPELVKPGASVKMSCKASGYTFTDYYMKWVKQSHGKSLEWIGDIIPSNGATFYNQKFKGKATLTVDRSSSTAYMHLNSLTSEDSAVYYCTRSHLLRASWFAYWGQGTLVTVSA
VL: DFVMTQSPSSLTVTAGEKVTMSCKSSQSLLNSGNQKNYLTWYLQKPGQPPKLLIYWASTRESGVPDRFTGSGSGTDFTLTISSVQAEDLAVYYCQNDYSYPYTFGGGTKLEIKR
notes: mouse monoclonal antibody (hybridoma ATCC HB-12009)
